Results from patent US20240101642A1.

How the values were obtained:
Assay in all cases: cell-based or functional assay
[1] = molecular target: sortase-ligated phosphopeptide β2AR reconstituted in HDL particles (HDL-β2ARpp) (human) (UniProt P07550)
[2] = molecular target: phosphopeptide-ligated β2AR with a deletion of the third intracellular loop (β2ARppΔ238-267), in HDL particles (human) (UniProt P07550)
[3] = molecular target: wild-type (WT) β2AR reconstituted in high-density lipoprotein particles (HDL-β2AR), non-phosphorylated (human) (UniProt P07550)
[4] = molecular target: β2AR ligated to a non-phosphorylated version of the V2R peptide, in HDL particles (β2ARnp) (human) (UniProt P07550)

| Substance | log IC50 of isoproterenol (ISO), competition radioligand binding, in the presence of βarr1 Δ62-77 (no transducer: -6.30+/-0.05) [1] [log] | log IC50 of isoproterenol (ISO), competition radioligand binding, in the presence of Gs (no transducer: -6.91+/-0.04) [2] [log] | fold increase of isoproterenol affinity by the transducer [1] [fold] | log IC50 of isoproterenol (ISO), [125I]-CYP competition binding, in the presence of Gs (no transducer: -6.24+/-0.04) [1] [log] | fold increase of isoproterenol affinity by the transducer [3] [fold] | log IC50 of isoproterenol (ISO), [125I]-CYP competition binding, in the presence of Gs (no transducer: -6.82+/-0.03) [3] [log] | log IC50 of isoproterenol (ISO), [125I]-CYP competition binding, in the presence of Gs (no transducer: -6.42+/-0.09) [4] [log] | log IC50 of isoproterenol (ISO), [125I]-CYP competition binding, in the presence of βarr1 (no transducer: -6.24+/-0.04) [1] [log] | log IC50 of isoproterenol (ISO), competition radioligand binding, in the presence of βarr1 (no transducer: -6.30+/-0.05) [1] [log] |
| --- | --- | --- | --- | --- | --- | --- | --- | --- | --- |
| finger loop deletion mutant of β-arrestin1 (βarr1 Δ62-77) in βarr1-MC-393 (from UniProt P29066 1-61; P29066 78-393) | -6.48 |  |  |  |  |  |  |  |  |
| heterotrimeric Gs protein (short Gαs splice variant, Gβ1-His6, Gγ2) (from UniProt P62873 2-340; P59768 2-68) |  | -8.85 | 800 | -9.15 | 1000 | -8.88 | -9.02 |  |  |
| β-arrestin1, minimal cysteine and truncated variant of rat βarr1 (βarr1-MC-393) (from UniProt P29066 1-393) |  |  | 9 |  |  |  |  | -7.14 | -7.25 |
